Test results taken from the nanobody polyreactivity screen of Harvey et al. (2022).

assay: yeast display, Sf9 membrane polyspecificity reagent, FACS + sequencing; frameworks hold sequencing errors
In short: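 Galactose induction of a Saccharomyces cerevisiae BJ5465 synthetic nanobody display library ran 36–48 hours. The cells were then stained for 1 hour at 4 °C with 10% biotinylated, detergent-solubilized Sf9 membrane reagent, pulled down on streptavidin microbeads and FACS-sorted into low and high (top ~1%) gates on expression and reagent-binding fluorescence. Labels for polyreactivity follow the gate of origin.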

Row | Sequence | polyreactivity (PSR sort gate)
1 | QVQLVESGGGLVQAGGSLRLSCAASGSIFNWNTMGWYRQAPGKERELVAAITYDGGTTYYADSVKGRFTISRDYAKNNVYLQMISLKPEDTAVYYCAAEFLYKYGRYDYWGQGTQVTVSS | high polyreactivity
2 | QVQLVESGGGLVQAGGSLRLSCAASGSTFIFNAMGWYRQAPGKEWELVAGISSGSTYYADSVKGRFTISRDNAKNTVYLQMNSLKPEDTAVYYCATKLRRWRFYAAYDYWGQGTQVTVSS | high polyreactivity
3 | QVQLVESGGVLVQSGGSLRLSCAASGLIFTWNAMGWYRQAPGKERELVAPISTGGSTSYADSVKGRFTISRDNAKNTVYLQMNSLKPEDTAVYYCARDSSIWSHGSWYDYWGQGTHVTVSS | low polyreactivity
4 | QVQLVESGGGLLQAGGSLRLSCAASGSTFYFYARGWYRQAPGKERELVAAITGSGGSTYYAVYVKGRFTISRDNSRNSVYLQMKSVKPEDTAVYYCAAGWWYYVHMDYWGQGTQVTVSS | high polyreactivity
5 | QVQLVESGGGLVQAGGSLRLSCAASGYIFISYAMGWYRQAPGKEREFVAAITGDGGSTYADSVKGRFSISRDNAKNTVYLQMNSLKPEDTAVYYCAVDGYGGEADYEYDHCGQGTQVTVSS | low polyreactivity
6 | QVQLVESGGGLVQAGGSLRLSCAATGSIFRYNTMGWYRQAPGKERELVATITRRGGSTYYADSVKGRITISRDNAKNTVYLQMNSLKPVDTAVYYCNDDNFGGPYNYWGQGTQVTVSS | low polyreactivity
7 | QVQLVESGGGFVQAGGSLRLSCAASGRTFLAMGWYRQAPGKERELVAAISRTNYADSVKGRFTISRDNAKNTVYLQMNSLKPEDTAVYYCNARRSYFLRYGVNYWGQGTQVTVSS | low polyreactivity
8 | QVQLVESGGGLVQAGGSLRLSCAASGFTFPLNAMGWYRQAPWKERELVAAITNGGTTYYADSVKGRFTISRDNAKNTVYLQMNSLKPEDTGVYYCAAYTYRYGSFKYGYWGQGTQVTVSS | low polyreactivity
9 | QVQLVESGGGLVQAGGSLRLSCAASGSTFVWYAMGWYRQAPGKEREFVAAITSDGGSTYYADSVKGRFTISRDNAKNTVYLQLNSLKPEDTAVYYCAADYYSLASGWYYYWGQGTQVTVSS | high polyreactivity
10 | QDQLVESGGGLVQAGGSHRLSCAASGLTLTDNALGWYRQAPGKERELVAAISQSGGRTSYADSVKGRFTISRDNAKNTVYLQMNSLKPEDTAVYYCNTRRGSVAKYGYWGQGTQVTVSS | high polyreactivity
11 | QVQLVESGGGLVQAGGSLRLSCAASGFTFVRNTMGWYRQAPGKERELVAAISRSGGSTYYADSVKGRFTISRDNAKNTVYLQMNSLKPEDTAVYYCNAYRYVHYDWGQGTQVTVSS | high polyreactivity
12 | QVQLVESGGGLVQAGGSLRLSCAASGFIFGWYAMGWYRQAPGKERELVAAINWSGTSTYYADSVKGRFTISRDNAKNTVYLQMNILKPEDTAVYYCAAYFQNLPTTGYDYWGQGTQVTVSS | low polyreactivity
13 | QVQLVESGGGLVQAGGSLRLSCAASGFTIYRNAMGWYRQAPGKERELVARIRRTGGRTYYADSVKGRFTISRDNAKNTVNLQMNSLKPEDTAVYYCAAYPGPGARYYYWGQGTQVTVSS | high polyreactivity
14 | QVQLVESGGGLVQAGGSLRLSCAASGRIFVYNAMGWYRQAPGKERELVAAITSGGSTYYADSVKGRFTISRDNAKNTVYLQMNSLKPEDTAVYYCAATYFSYTYSRYDYWGQGTQVTVSS | high polyreactivity
15 | QVQLVESGGGLVQAGGSLRLSCAASGRTFRLYAMGWYRQATGTETELVAAISSRGGSTYYADSVKGRFTISRDNAKNTVYLQMNSLKPEDTAVYYCAKGLGSGQEIYGYDYWGQGTQVTVSS | high polyreactivity
16 | QVQLVESGGGLVQAGGSLRLSCAASGSIFRRYTMGWYRPAPGKERELVAAISRVGNTNYADSVKGRFTISRDNAKNTVYLPMNSLKPEDTAVYYCAARAIGYRYTPGLNYWGQGTQLTVSS | high polyreactivity

Row | Sequence | polyreactivity (PSR sort gate)
17 | QVQHVESVGGLVQAGGSLRLSCAASGRTFGCYTMGWYRHATGTERELVAGISSSGGSTYYADSVKGRFTISRDNAKNTVYLQMNSLKPEDTAVYYCARETYPHGLYYRPYDYWGQGTQVTVSS | low polyreactivity
18 | QVQLVESGGGLVQAGGSLRLSCAASGRIFGDNTMGWYRQAPGKERELVAAISFTGGSTYYADSVKGRFSISRDNAKNTVYLQMNSLKPEDTAVYYCNADWVSTWGYDYWGQGTQVTVSS | low polyreactivity
19 | QVQLVESGGGLVQAGGSLRLSCAASGLTFGSYAMGWYRQAPGKERELVAAITWSGGSTYYADSVKGRFTISRDNAKNTVYLQMNSLKPEDTAVYYCAVYSTEYKLLWGGIAYDYWGQGTQVTVSS | low polyreactivity
20 | QVQLVESGGGLVQAGGSLRLSCAASGRIFGFYAMGWYRQAPGKERELVADINWSATSTYYADSVKGRFTISRDNAKNTVYLQMNSLKPEDTAVYYCAADVSYRYYWGQVTQVTVSS | low polyreactivity
21 | QVQLVESGGGLVQAGGSLRLSCAASGLTFPRYTMGWYRQPPGKERELVAAISSSTGTTNYADSVKGRFTISRDNAKNTVYLQMNSLKPEDTAVYYCAKRVSSWLGFHLDYWGQGTQVTVSS | low polyreactivity
22 | QVQLVESGGGLVQAGGSLRLSCAASGSIFNIYAMGLYRQAPGKERELVATITGIADSTYYADSVKGRFTISRDNAKNTVYLQMNSLKPEDTAVYYCAADKYVAEYDYWGQGTQVTVSS | low polyreactivity
23 | QVQLVESGGGLVQAGGSLRLSCAASGRIFVLYAMGWYRHSPGKERELVAAINWSGGSTFYADSVKGRFTISRDNAKNTVYLQMNSLKPEDTAVYYCNARGLRVKYDYWGQGTQVTVSS | high polyreactivity
24 | QVQLQESGGCVVQAGGSLRLSCAASGTISDSGLMGWYRQAPGKERELVAGISSGGITNYADSVKGRFTISRDNAKNTVYLQMNSLKPEDTAVYWGQGTQVTVSS | low polyreactivity
25 | QVQLVESGAGLVQAGGSLRLSCAASVSTLDLYAMGWYRQAPGKERELVAYISWSGGSTYYADSVKGRFTISRDNAKNTVYLQMNSLKPEDTAVYYCAAGNITPYRYYHGYYQSIYDYWGQGTQVTVSS | low polyreactivity
26 | QVQLVESGGGLVQAGGSLRLSCAASGRIFGRYAMGWYRQAPGKERELVAAISSGTSTNYADSVKGRFTISRDNAKNTVYLQMNSLKPEDTAVYYCAVVLYRHWWYDYWGQGTQVTVSS | high polyreactivity
27 | QVQLVESGGGLVQAGGSLRLSCAASGFIFWDYAMGWYRQAPGKEREFVATISLSVGSTYYADSVKGRFTISRDNAKNTVYLQMNSLKPEDTAVYYCAAVTWGEGFDYWGQGTQVTVSS | low polyreactivity
28 | QVQLVESGGGLVQAGGSHRLSCAASGNTFPLYAMGWYRQAPGKERELVAAISQRGGSTYYADSVKGRFTISRDNAKNTVYLQMNSLKPEDTAVYYCAATWADEYQYRRYYYWGHGTQVTVSS | high polyreactivity
29 | QVQLVESGGGLVQAGGSLRLSCAASGFIFSGYAMGWYRQAPGKEREFVAAISWSGSSTYYADSVKGRFTISRDNAKNTVYLQMNSLKPEDTALYYCNAVRQHPPRYSRYDYWGQGTQVTVSS | high polyreactivity
30 | QVQLVESGGGLVQAGGSLRLSCAASGSTFSIYAMGWYRQAPGKERELVAAISSSGGSTYYADSVKGRFTISRDNAKNTFYLQMNSLKPEDTAVYYCNKRKYHVRYDYWGQGTQVTVSS | low polyreactivity
31 | QVQLVESGGGLVHAGGSLRLSCAASGSTFVRNAMGWYRQAPGKERELVAAITSRGGSTYYADSVKGRFTISRDNAKNTVYLQMNSLKPEDTAVYYCAARFGVKRGQYDYWGQGTQVTVSS | high polyreactivity
32 | QVQLVDSGGGLVQAGGSLRLSCAASGSILVYYAMGWYRQAPGKERELVAAISSGGSTNYADSVKGRFTISRDNANNTVYLKINSLKPEDTAVYYCAKPDRTGWLEGDYWGQGTQVSVSS | low polyreactivity
